Data: PMC8318917 (The Journal of Biological Chemistry, 2021)

Molecular target: T1, human TRADD death domain (199–312) (human, UniProt Q15628 199-312)
T1 sequence: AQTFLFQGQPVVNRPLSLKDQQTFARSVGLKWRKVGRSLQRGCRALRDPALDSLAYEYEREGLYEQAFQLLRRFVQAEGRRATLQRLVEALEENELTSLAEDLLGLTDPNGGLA
Assay: NMR solution structure

B1: human p75 neurotrophin receptor death domain (330–427) (domain or fragment)
chain: KGDGGLYSSLPPAKREEVEKLLNGSAGDTWRHLAGELGYQPEHIDSFTHEACPVRALLASWATQDSATLDALLAALRRIQRADLVESLCSESTATSPV
binding result: binds
